In patent US20240343809A1 (EXCELMAB, published 2024) one finds EC50 data, which are given here for 17 molecules.

In this assay the target is T1, human B7-H3 antigen, recombinant extracellular domain (ECD) (29-461) (human, UniProt Q5ZPR3 29-461).
T1 construct: range 29-461; Expressed in 293F cells as B7-H3-TEV-cFc-His fusion, cut with TEV protease and cleaned over a nickel column to give the human B7-H3 antigen; also called recombinant human B7-H3 antigen; hB7-H3
T1 sequence (looked up): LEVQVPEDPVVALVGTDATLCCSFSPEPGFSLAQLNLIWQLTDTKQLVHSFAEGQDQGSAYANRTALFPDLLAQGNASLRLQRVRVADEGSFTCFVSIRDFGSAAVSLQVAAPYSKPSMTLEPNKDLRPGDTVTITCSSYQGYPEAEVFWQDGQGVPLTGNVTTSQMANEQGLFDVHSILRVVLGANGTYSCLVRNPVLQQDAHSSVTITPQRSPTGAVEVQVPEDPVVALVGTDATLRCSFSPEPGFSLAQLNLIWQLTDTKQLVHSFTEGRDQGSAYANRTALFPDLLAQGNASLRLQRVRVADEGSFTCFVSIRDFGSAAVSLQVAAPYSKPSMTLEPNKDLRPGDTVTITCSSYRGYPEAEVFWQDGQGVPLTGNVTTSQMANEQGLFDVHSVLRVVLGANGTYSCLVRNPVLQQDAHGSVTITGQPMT
Briefly: ELISA, coated human B7-H3 antigen. The method, then:
The binding activity of the 5D9 to B7-H3 antigen was analyzed by ELISA. Human B7-H3 antigens were coated on the 96-well plate and placed at 4° C. overnight. The antibody 5D9 and controls were diluted to 10 μg/mL, followed by 4-fold dilution gradients to generate a total of 8 different concentrations. The diluted samples and the wells coated antigen were incubated for 1h. After washing, HRP (horseradish peroxidase)-labeled goat anti-human IgG (H+L) secondary antibody was added to the plate and incubated for 1h. TMB (3,3′,5,5′-tetramethylbenzidine) solution was then added to each well after washing for chromogenesis. The absorbance was measured at OD₄₅₀ₙₘ with a microplate reader. Taking the logarithmic value of the sample concentration as the X-axis, and the absorbance OD₄₅₀ₙₘ value as the Y-axis, a dose-response curve was drawn to calculate the EC₅₀. The EC₅₀ represents the binding activity of the antibody to B7-H3 antigen. A negative control IgG group and a positive antibody Enoblituzumab control group were meanwhile set in the experiment.
ELISA was used to analyze the binding activity of affinity-matured variants to human B7-H3 antigen. By taking the logarithmic value of the sample concentration as the X-axis, and the absorbance OD₄₅₀ₙₘ value as the Y-axis, a dose-response curve was drawn to calculate the EC₅₀. The EC₅₀ represents the binding activity of the affinity-matured variants to B7-H3 antigen. A positive control Enoblituzumab and a negative control hIgG were set in the experiment.
(In general: In an ELISA, binding on a coated surface is turned into a signal by an enzyme label.)

B1: affinity-matured B7-H3 antibody 42A1 (antibody, V domains shown)
VH: QVQLVQSGAEVKKPGSSVKVSCKASGGTGGIYLINWVRQAPGQGLEWMGGIIPLFGTANYAQKFQGRVTITADESTSTAYMELSSLRSDDTAVYYCARDQVVATSGVNFGMDVWGQGTTVTVSS
VL: DIQMTQEPSLTTSPGGTVTLTCRSSTGAVTTSNYANWVQEKPGQAPRGLIGGTNKRAPGTPARFSGSLIGGKAALTITGVQPEDEAIYFCALWYSNLWVFGGGTKLEIK
notes: Full antibody expressed in 293F cells, protein A purified; VH assembled from the framework and CDR entries
By EC50 is commonly meant the concentration at which the effect is half-maximal. For B1, the EC50 amounted to 0.0354 µg/mL.

B2: affinity-matured B7-H3 antibody 47C8 (antibody, V domains shown)
VH: QVQLVQSGAEVKKPGSSVKVSCKASGGTFSNYAINWVRQAPGQGLEWMGGIIPLFGTANYAQKFQGRVTITADESTSTAYMELSSLRSDDTAVYYCARDIEVMASGVNFGMDVWGQGTTVTVSS
VL: DIQMTQEPSLTTSPGGTVTLTCRSSTGAVTTSNYANWVQEKPGQAPRGLIGGTNKRAPGTPARFSGSLIGGKAALTITGVQPEDEAIYFCALWYSNLWVFGGGTKLEIK
notes: as for B1
As for B2, the concentration giving a half-maximal response (EC50) worked out at 0.0426 µg/mL.

B3: affinity-matured B7-H3 antibody 49H5 (antibody, V domains shown)
VH: QVQLVQSGAEVKKPGSSVKVSCKASGGTFSNYAINWVRQAPGQGLEWMGGIIPDFNSANYAQKFQGRVTITADESTSTAYMELSSLRSDDTAVYYCARDQVVATSGVNFGMDVWGQGTTVTVSS
VL: DIQMTQEPSLTTSPGGTVTLTCRSSTGAVTTSNYANWVQEKPGQAPRGLIGGTNKRAPGTPARFSGSLIGGKAALTITGVQPEDEAIYFCALWYSNLWVFGGGTKLEIK
notes: as for B1
B3: the 50% effective concentration (EC50) stood at 0.0336 µg/mL.

B4: affinity-matured B7-H3 antibody 49E1 (antibody, V domains shown)
VH: QVQLVQSGAEVKKPGSSVKVSCKASGGTFSNYAINWVRQAPGQGLEWMGGIIPVFRSVNYAQKFQGRVTITADESTSTAYMELSSLRSDDTAVYYCARDQVVATSGVNFGMDVWGQGTTVTVSS
VL: DIQMTQEPSLTTSPGGTVTLTCRSSTGAVTTSNYANWVQEKPGQAPRGLIGGTNKRAPGTPARFSGSLIGGKAALTITGVQPEDEAIYFCALWYSNLWVFGGGTKLEIK
notes: as for B1
B4: the concentration giving a half-maximal response (EC50) was 0.0261 µg/mL.

B5: affinity-matured B7-H3 antibody 49C7 (antibody, V domains shown)
VH: QVQLVQSGAEVKKPGSSVKVSCKASGGTFSNYAINWVRQAPGQGLEWMGGIIPNFYSVNYAQKFQGRVTITADESTSTAYMELSSLRSDDTAVYYCARDQVVATSGVNFGMDVWGQGTTVTVSS
VL: DIQMTQEPSLTTSPGGTVTLTCRSSTGAVTTSNYANWVQEKPGQAPRGLIGGTNKRAPGTPARFSGSLIGGKAALTITGVQPEDEAIYFCALWYSNLWVFGGGTKLEIK
notes: as for B1
B5: the half-maximal effective concentration (EC50) came out at 0.033 µg/mL.

B6: affinity-matured B7-H3 antibody 49D12 (antibody, V domains shown)
VH: QVQLVQSGAEVKKPGSSVKVSCKASGGTFSNYAINWVRQAPGQGLEWMGGIIPRFASRNYAQKFQGRVTITADESTSTAYMELSSLRSDDTAVYYCARDQVVATSGVNFGMDVWGQGTTVTVSS
VL: DIQMTQEPSLTTSPGGTVTLTCRSSTGAVTTSNYANWVQEKPGQAPRGLIGGTNKRAPGTPARFSGSLIGGKAALTITGVQPEDEAIYFCALWYSNLWVFGGGTKLEIK
notes: as for B1
With B6, the EC50 came out at 0.0219 µg/mL.

B7: affinity-matured B7-H3 antibody 48E9 (antibody, V domains shown)
VH: QVQLVQSGAEVKKPGSSVKVSCKASGGTGGAYLINWVRQAPGQGLEWMGGIIPLFGTANYAQKFQGRVTITADESTSTAYMELSSLRSDDTAVYYCARDQVVATSGVNFGMDVWGQGTTVTVSS
VL: DIQMTQEPSLTTSPGGTVTLTCRSSTGAVTTSNYANWVQEKPGQAPRGLIGGTNKRAPGTPARFSGSLIGGKAALTITGVQPEDEAIYFCALWYSNLWVFGGGTKLEIK
notes: as for B1
Take B7: the 50% effective concentration (EC50) came to 0.0438 µg/mL.

B8: affinity-matured B7-H3 antibody 49F6 (antibody, V domains shown)
VH: QVQLVQSGAEVKKPGSSVKVSCKASGGTFSNYAINWVRQAPGQGLEWMGGIIPGFDAVNYAQKFQGRVTITADESTSTAYMELSSLRSDDTAVYYCARDQVVATSGVNFGMDVWGQGTTVTVSS
VL: DIQMTQEPSLTTSPGGTVTLTCRSSTGAVTTSNYANWVQEKPGQAPRGLIGGTNKRAPGTPARFSGSLIGGKAALTITGVQPEDEAIYFCALWYSNLWVFGGGTKLEIK
notes: as for B1
For B8, the 50% effective concentration (EC50) stood at 0.0309 µg/mL.

B9: affinity-matured B7-H3 antibody 48D10 (antibody, V domains shown)
VH: QVQLVQSGAEVKKPGSSVKVSCKASGGTRPAALINWVRQAPGQGLEWMGGIIPLFGTANYAQKFQGRVTITADESTSTAYMELSSLRSDDTAVYYCARDQVVATSGVNFGMDVWGQGTTVTVSS
VL: DIQMTQEPSLTTSPGGTVTLTCRSSTGAVTTSNYANWVQEKPGQAPRGLIGGTNKRAPGTPARFSGSLIGGKAALTITGVQPEDEAIYFCALWYSNLWVFGGGTKLEIK
notes: as for B1
For the molecule B9, the half-maximal effective concentration (EC50) was 0.0251 µg/mL.

B10: affinity-matured B7-H3 antibody 48A6 (antibody, V domains shown)
VH: QVQLVQSGAEVKKPGSSVKVSCKASGGTRPPALINWVRQAPGQGLEWMGGIIPLFGTANYAQKFQGRVTITADESTSTAYMELSSLRSDDTAVYYCARDQVVATSGVNFGMDVWGQGTTVTVSS
VL: DIQMTQEPSLTTSPGGTVTLTCRSSTGAVTTSNYANWVQEKPGQAPRGLIGGTNKRAPGTPARFSGSLIGGKAALTITGVQPEDEAIYFCALWYSNLWVFGGGTKLEIK
notes: as for B1
On to B10, for which the EC50 turned out to be 0.0272 µg/mL.

B11: affinity-matured B7-H3 antibody 50A1 (antibody, V domains shown)
VH: QVQLVQSGAEVKKPGSSVKVSCKASGGTFSNYAINWVRQAPGQGLEWMGGIIPLFGTANYAQKFQGRVTITADESTSTAYMELSSLRSDDTAVYYCARDQVVPLSGVNFGMDVWGQGTTVTVSS
VL: DIQMTQEPSLTTSPGGTVTLTCRSSTGAVTTSNYANWVQEKPGQAPRGLIGGTNKRAPGTPARFSGSLIGGKAALTITGVQPEDEAIYFCALWYSNLWVFGGGTKLEIK
notes: as for B1
In the case of B11, the half-maximal effective concentration (EC50) amounted to 0.0321 µg/mL.

B12: affinity-matured B7-H3 antibody 48G2 (antibody, V domains shown)
VH: QVQLVQSGAEVKKPGSSVKVSCKASGGTSRPVLINWVRQAPGQGLEWMGGIIPLFGTANYAQKFQGRVTITADESTSTAYMELSSLRSDDTAVYYCARDQVVATSGVNFGMDVWGQGTTVTVSS
VL: DIQMTQEPSLTTSPGGTVTLTCRSSTGAVTTSNYANWVQEKPGQAPRGLIGGTNKRAPGTPARFSGSLIGGKAALTITGVQPEDEAIYFCALWYSNLWVFGGGTKLEIK
notes: as for B1
For the molecule B12, the EC50 was found to be 0.0303 µg/mL.

B13: affinity-matured B7-H3 antibody 43G5 (antibody, V domains shown)
VH: QVQLVQSGAEVKKPGSSVKVSCKASGGTVRPALINWVRQAPGQGLEWMGGIIPLFGTANYAQKFQGRVTITADESTSTAYMELSSLRSDDTAVYYCARDQVVATSGVNFGMDVWGQGTTVTVSS
VL: DIQMTQEPSLTTSPGGTVTLTCRSSTGAVTTSNYANWVQEKPGQAPRGLIGGTNKRAPGTPARFSGSLIGGKAALTITGVQPEDEAIYFCALWYSNLWVFGGGTKLEIK
notes: as for B1
With B13, the concentration giving a half-maximal response (EC50) was determined as 0.0279 µg/mL.

B14: affinity-matured B7-H3 antibody 49C8 (antibody, V domains shown)
VH: QVQLVQSGAEVKKPGSSVKVSCKASGGTFSNYAINWVRQAPGQGLEWMGGIIPKFRSQNYAQKFQGRVTITADESTSTAYMELSSLRSDDTAVYYCARDQVVATSGVNFGMDVWGQGTTVTVSS
VL: DIQMTQEPSLTTSPGGTVTLTCRSSTGAVTTSNYANWVQEKPGQAPRGLIGGTNKRAPGTPARFSGSLIGGKAALTITGVQPEDEAIYFCALWYSNLWVFGGGTKLEIK
notes: as for B1
Take B14: the EC50 was found to be 0.0285 µg/mL.

B15: affinity-matured B7-H3 antibody 49B2 (antibody, V domains shown)
VH: QVQLVQSGAEVKKPGSSVKVSCKASGGTFSNYAINWVRQAPGQGLEWMGGIIPNFHSSNYAQKFQGRVTITADESTSTAYMELSSLRSDDTAVYYCARDQVVATSGVNFGMDVWGQGTTVTVSS
VL: DIQMTQEPSLTTSPGGTVTLTCRSSTGAVTTSNYANWVQEKPGQAPRGLIGGTNKRAPGTPARFSGSLIGGKAALTITGVQPEDEAIYFCALWYSNLWVFGGGTKLEIK
notes: as for B1
For B15, the half-maximal effective concentration (EC50) was 0.0286 µg/mL.

B16: affinity-matured B7-H3 antibody 48B12 (antibody, V domains shown)
VH: QVQLVQSGAEVKKPGSSVKVSCKASGGTTGRYLINWVRQAPGQGLEWMGGIIPLFGTANYAQKFQGRVTITADESTSTAYMELSSLRSDDTAVYYCARDQVVATSGVNFGMDVWGQGTTVTVSS
VL: DIQMTQEPSLTTSPGGTVTLTCRSSTGAVTTSNYANWVQEKPGQAPRGLIGGTNKRAPGTPARFSGSLIGGKAALTITGVQPEDEAIYFCALWYSNLWVFGGGTKLEIK
notes: as for B1
On to B16, for which the EC50 amounted to 0.0259 µg/mL.

B17: affinity-matured B7-H3 antibody 49C3 (antibody, V domains shown)
VH: QVQLVQSGAEVKKPGSSVKVSCKASGGTFSNYAINWVRQAPGQGLEWMGGIIPNFESVNYAQKFQGRVTITADESTSTAYMELSSLRSDDTAVYYCARDQVVATSGVNFGMDVWGQGTTVTVSS
VL: DIQMTQEPSLTTSPGGTVTLTCRSSTGAVTTSNYANWVQEKPGQAPRGLIGGTNKRAPGTPARFSGSLIGGKAALTITGVQPEDEAIYFCALWYSNLWVFGGGTKLEIK
notes: as for B1
Turning to B17, the EC50 came out at 0.0245 µg/mL.
